Residue numbers refer to the chain shown, from its start. pKd: −log10 of the molar value.

The first data set deals with T1, CodY (B. cytotoxicus CVUAS 2833) (Bacillus cytotoxicus CVUAS 2833) (UniProt A7GRF8).
T1 sequence: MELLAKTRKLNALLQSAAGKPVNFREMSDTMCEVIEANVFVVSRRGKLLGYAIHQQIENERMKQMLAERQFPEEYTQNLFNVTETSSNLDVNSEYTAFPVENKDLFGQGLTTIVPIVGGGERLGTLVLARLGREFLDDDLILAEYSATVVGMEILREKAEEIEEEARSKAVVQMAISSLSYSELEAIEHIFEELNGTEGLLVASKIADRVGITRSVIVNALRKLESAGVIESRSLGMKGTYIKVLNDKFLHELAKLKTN
Put plainly: EMSA. (In general: Mobility shift assays separate free from complexed probe on a gel.)
Consider PcytK-1, for which the pKd (as a rule, the negative decadic logarithm of the Kd, by convention in mol/L) is less than 6.00.

A further data set concerns the target T2, CodY (B. cereus INRA C3) (Bacillus cereus INRA C3) (UniProt Q819X8).
T2 sequence: T1 sequence with N78S, V82I, E94A, K103R, D104E, R133Q, A147S, H251Q
Kind of data set: EMSA.
The substance “AAATTATCGATCGTAATCGACAAAATTTTTCTATTTACGCATTAAAAATTTAATGTTTTAATGAACAACATAACTGGTATGACCAGACAGAAAGGATAAGGTTACGCTAATAGGAATTATAGTGAAGTTGTAAGTAACATTATGTTGAAAATATTTTTCGAATAGTCTATTTATTTACAAGAGGTCAAGAATCAAGTTTGTAATAAACGTGTTCTAAGTTTCTGCATAACAAAAGTGAAGTTATTCCGCAATAAAAGTATAAGCGATGTACAGTATAATTTTACCTTTTTTAGTCTAGTAAGGAGTTTGCTGA (double strand) [Phbl-2]” had a pKd of 6.60.
“AATAATGATATTAGGATGTTTTGTGAAAAAATCAACAATATAACATATATTACTAAATATATCTACATTTTATGCAATTATACATAACTAAATAAAGGTAAAAAAGTATAAAAAGACCTATTATATTATTCTATAAGTATTTTTTCTAAAATAAAATTTCTCGGTTGAGCTAAAATAGTTATTTTTAACCGTATACACATTAATTTGTAATCATTACAATTACAGAAATGAAATTTACGGATAACTATATTTGTATAATTTTTTTCGGTTCATATTTTTATTTAACAGTAAATTATCGATCGTAATC (double strand) [Phbl-1]” showed a negative-log Kd (pKd) of 6.15.
Same read-out and setting: to “ATCCGAATTCTGTATATGCTATGCATAATTGCATACGGGGTTAAAAATTATATCAATATAATTTTACCGGTTGTTTGCAAGTAGTGTTTTCTGTTGTGATATGTAGATATTTCAATCGATAAAGTGAATCGGATTATATTTTGAAATAAGGACATGAAAGCTTGAAAATAAAGGGAATGAAAATACTTCTTTACGTTATATAAACAGCTGTGTTTAAATGACCTTACAGTACAAAACTTATATGAAAACAAAACGAAATTTCATATTTACGTATGTTGTTTGGTTTAAAATGAATAATATTTTTATGTAATATATTCACTGTGTGAATGTGGGAATTTCGATGAAATAGAAAATTTATACAATATTATTCATACTAAACACATATGAAAAGTTTTATAACAATAAGTAAGTACTGTAGCAATAACAGTTGGGAGAGATGGTTCATACATAGATCACGGTGAGAACGTTCTCTATTTTAACCATCTCAAATTATGGGCAAGAAAATAGAATAATAAAATGCGATAGTAATAGTTGCTAATACATAGGAGGAGTTAAAGTGGATCCGACT (double strand) [Pnhe INRA C3]” belongs 6.90; to “CAAGTTTGTAATAAACGTGTTCTAAGTTTCTGCATAACAAAAGTGAAGTTATTCCGCAATAAAAGTATAAGCGATGTACAGTATAATTTTACCTTTTTTAGTCTAGTAAGGAGTTTGCTGATAAAACTAAGAGTAATATTATTAAATTTAAATTAAACAATGTTATGGCAAGATTAACTGTAAGCATTGGTTTATTGATTCTCGCGGTTCTGTAAGTTAAACCGCAATTCTAGGGAAGAATTACACATTTACTATTCATAGGGTGCTTGATTCAAATATAGTTAATAAATTTTTGTTATTTATATTTGAAAAAATAGAGTATCGAAGTGAGAGG (double strand) [Phbl-4]”, 6.15.
On the same count and under the same terms, to PcytK-2 belongs less than 6.00; to PinhA1 INRA C3, 6.60.
Take “TCTAGTAAGGAGTTTGCTGATAAAACTAAGAGTAATATTATTAAATTTAAATTAAACAATGTTATGGCAAGATTAACTGTAAGCATTGGTTTATTGATTCTCGCGGTTCTGTAAGTTAAACCGCAATTCTAGGGAAGAATTACACATTTACTATTCATAGGGTGCTTGATTCAAATATAGTTAATAAATTTTTGTTATTTATATTTGAAAAAATAGAGTATCGAAGTGAGAGGTAAGTAAAATCCTTACATTCTATTAGAAGTAAAAAATAACGATATTATCCTATCTGAAAGATTTCTCCTTCTTAATCAGTTTACAAAGAGAGAGGTCATACAAGTTATATGAATTAAGTTATAAAAACAATGGTAAAGGAGTGTACGGAAT (double strand) [Phbl-3]”: the pKd was 6.15.

These data come from article PMC4877379.
